The target of test [1] is human Anti-Mullerian Hormone Receptor II (AMHR2), full length (human) (UniProt Q16671). Description: flow cytometry competition on AMHR2-OVCAR8 cells: 4D12G1 mAb at 1 µg/ml with recombinant ovalbumin at 1 µg/ml; 91 % without competitor in FIG. 2E. In general terms: Flow cytometry measures light scatter and fluorescence of single cells or particles in a stream.
The target is the same in test [2]. Description: flow cytometry competition on AMHR2-OVCAR8 cells: 4D12G1 mAb at 1 µg/ml with recombinant ovalbumin at 10 µg/ml; 91 % without competitor in FIG. 2E.
Test [3] has the same target. Description: flow cytometry competition on AMHR2-OVCAR8 cells: 4D12G1 mAb at 1 µg/ml with recombinant ovalbumin at 100 µg/ml; 91 % without competitor in FIG. 2E.
Test [4] shares this target. Put plainly: flow cytometry on primary HGSOC-1 cells.
The target is the same in test [5]. Put plainly: flow cytometry on primary HGSOC-2 cells.
The target is the same in test [6]. Description: flow cytometry on AMHR2-OVCAR8 cells, mAb at 1 µg/ml.

Sequence of human Anti-Mullerian Hormone Receptor II (AMHR2), full length (human) (Q16671 18-573 limits assumed): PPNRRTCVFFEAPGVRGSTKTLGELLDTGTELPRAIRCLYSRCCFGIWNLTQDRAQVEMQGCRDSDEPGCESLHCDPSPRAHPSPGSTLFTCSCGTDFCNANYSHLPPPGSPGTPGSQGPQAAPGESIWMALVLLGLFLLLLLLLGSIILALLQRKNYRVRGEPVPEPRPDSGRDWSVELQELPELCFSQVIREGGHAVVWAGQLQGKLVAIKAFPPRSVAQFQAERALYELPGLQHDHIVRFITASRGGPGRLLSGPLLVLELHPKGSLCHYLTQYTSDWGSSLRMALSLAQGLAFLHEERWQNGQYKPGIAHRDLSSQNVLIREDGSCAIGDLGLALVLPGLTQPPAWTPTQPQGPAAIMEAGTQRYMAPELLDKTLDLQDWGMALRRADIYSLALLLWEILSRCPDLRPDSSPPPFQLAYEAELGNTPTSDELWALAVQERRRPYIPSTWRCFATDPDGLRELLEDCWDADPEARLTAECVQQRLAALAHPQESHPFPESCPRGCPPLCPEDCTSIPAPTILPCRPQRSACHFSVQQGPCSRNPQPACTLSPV

With “recombinant ovalbumin (from UniProt P01012 2-386)”, in test [1], the % of cells in the 4D12G1-positive gate with ovalbumin at 1 µg/ml was 88%. Besides, the % of cells in the 4D12G1-positive gate with ovalbumin at 10 µg/ml in test [2] came to 86%. In test [3], the % of cells in the 4D12G1-positive gate with ovalbumin at 100 µg/ml was 88%.
As to isotype control mAb (antibody), the percent of cells bound was found to be 1.5% in test [4] and 1.1% in test [5]. Moreover, in test [6], the % of cells in the positive gate was determined as 1.1%.

(Values after patent publication US20230078601A1 (CLEVELAND CLINIC FOUNDATION, published 2023).)
